In patent publication US9958461B2, “Detection of protein to protein interactions” (THE GOVERNING COUNCIL OF THE UNIVERSITY OF TORONTO, priority 2013, dated 2018):

How the values were obtained:
[1] = tested on: EGFR-ex19del; assay: Western blot of EGFR-ex19del bait phosphorylation after erlotinib (anti-phospho-EGFR); details: 0, 250 or 500 nM Erlotinib, 20 h, serum-containing media
Excerpt: (a) Left panel: Relative luciferase activity of stable 5×GAL4UAS-HEK293T luciferase reporter cells co-transfected with various oncogenic ErbB baits and Shc1 prey. […] (b) Luciferase activity of sable 5×GAL4UAS-HEK293T luciferase reporter cells co-transfected with EGFR-Wt, EGFR-L858R or EGFR-D855A-kinase dead baits and Shc1 adaptor prey. (c)-(d) Western Blot showing expression of various receptors using anti-V5 antibodies and phosphor-tyrosine-specific antibodies. […] (h) Western Blot analysis of EGFR-Wt, EGFR-L858R, EGFR-exon19de and EGFR-L858R/T790A baits transfected into stable5×GAL4UAS-luciferase HEK293T reporter cells in serum-containing media.
Western blot analysis was performed using standard protocols. Briefly, cells were either directly harvested in 2×sample buffer or harvested in 1×reporter lysis buffer (Promega) containing protease inhibitors (Complete-EDTA, Roche) and 2×sample buffer was added after freezing the cells at −80° C. For phospho-specific antibodies, cells were lysed in Ripa buffer containing Na-orthovanadate, PMSF and protease inhibitor and 2×SB was added and samples were immediately boiled at 95° C. for 5 min and proceeded for Western Blot analysis. […] Transferred samples were immunoblotted with primary antibodies, followed by incubation with HRP-coupled secondary antibodies, and detection was performed using GE-Healthcare enhanced luminescence. […]

[2] = target: T1, ErbB4/Shc1 interaction (Homo sapiens, UniProt Q15303); assay: MaMTH luciferase reporter assay, ErbB4 bait / Shc1 prey with TKI-PD158780; assay type: cell-based; details: presence/absence of TKI-PD158780
T1 construct: with the advantage of testing full-length integral membrane proteins; (GGGGS)2 linker-Cub (human ubiquitin aa 35-76)-transcription factor (GAL4-mNFkB or mLexA-VP16; expressed in transfected cells; HEK293T reporter lines are used throughout)
Method: FIG. 7: (a) Graph illustrating relative lucifease activity of serum stimulated PPIs. Stable 5×GAL4UAS-luciferase reporter cell lines were co-transfected with ErbB2 bait and preys. Luciferase activity was measured 24 h following transfection in the absence/presence of serum. […] The plotted values represent relative-luciferase signals calculated as fold-change increase above averaged negative controls. (b) Graph illustrating relative luciferase activity of drug-inhibited protein-protein interactions. Following transfection, ErbB4 interaction with either Shc1 or non-interacting Pex13 was measured in presence/absence of non-specfic TKI-PD158780. Plotted values represent relative luciferase signals calculated as fold-change increase above bait only controls.
We then sought to more specifically focus on the ErbB subfamily of receptor tyrosine kinases (RTK) to investigate ligand-dependent and drug-inhibited interactions. The ErbB family consists of 4 closely related receptors: EGFR, ErbB2, ErbB3, and ErbB4. Elucidation of cell signaling via all four ErbB receptors is of great therapeutic interest since they are frequently found mutated or overexpressed in several cancer. […]

[3] = target: T2, EGFR-Wt (Homo sapiens, UniProt P00533); assay: MaMTH EGFR-interactor screen, lentiviral preys against EGFR-wildtype bait (interaction score); assay type: cell-based; details: MaMTH interaction score of prey with EGFR-Wt bait, mean
T2 construct: with the advantage of testing full-length integral membrane proteins; (GGGGS)2 linker-Cub (human ubiquitin aa 35-76)-GAL4(1-147)-mNFkB(364-550) (C); expressed in transfected cells
Method: (§1) After lentivirus harvest, target cells (stable 5×GAL4UAS-luciferase reporter-HEK293T cells) were infected at a multiplicity of infection (MOI) of around 0.3-0.4 to ensure single copy integration per cell. Cells were selected in puromycin for at least 48 h and transfected with either EGFR-wildtype or EGFR-L858R baits in triplicates. 24 h after transfection, cells were lysed and luciferase assays performed. On each set of interaction assays, various negative controls were included. To calculate a MaMTH-interaction scores, negative controls were averaged and the fold-change of luciferase activity compared to the averaged controls was calculated and defined as the interaction score.
(§2) Each set of experiments contains a defined set of negative controls in at least three replicates. Negative controls were chosen as such that there is a range of controls showing high-background luciferase activity (normally cytosolic proteins: Fabp5, Pex19) as well as medium-background luciferase activity (membrane-bound interactors: Pex7, GABBR2). Negative controls were averaged and the fold-change of luciferase activity was calculated. Using this method, we have a stringent cut-off and chose an interaction score >1 to be interacting proteins.
(§3) Our cut-off of 1 is based on fold-change difference in luciferase activity over averaged negative controls. Negative controls include cytosolic preys (which tend to promiscuously bind to many proteins), plasma membrane- and peroxisomal-prey proteins. In general, we chose stringent conditions by testing preys that tend to have high luciferase background with any bait tested, in order to generate high-confidence interaction data. […] Phosphorylated tyrosine residues on the receptor are typically docking sites for downstream cytoplasmic targets and recognized through SH2 or PTB domains^43.

[4] = tested on: EGFR-Wt; assay: as above; assay type: cell-based, human; details: ratio of EGFR-Wt mean to EGFR-L858R mean interaction score
Method: as §1, §2, §3

[5] = target: T3, EGFR-L858R (Homo sapiens, UniProt P00533, L858R); assay: MaMTH EGFR-interactor screen, lentiviral preys against EGFR-L858R bait (interaction score); assay type: cell-based; details: MaMTH interaction score of prey with EGFR-L858R bait
T3 construct: with the advantage of testing full-length integral membrane proteins; (GGGGS)2 linker-Cub (human ubiquitin aa 35-76)-GAL4(1-147)-mNFkB(364-550) (C); expressed in transfected cells
Method: as §1, §2, §3

T1 sequence (Q15303 26-1308): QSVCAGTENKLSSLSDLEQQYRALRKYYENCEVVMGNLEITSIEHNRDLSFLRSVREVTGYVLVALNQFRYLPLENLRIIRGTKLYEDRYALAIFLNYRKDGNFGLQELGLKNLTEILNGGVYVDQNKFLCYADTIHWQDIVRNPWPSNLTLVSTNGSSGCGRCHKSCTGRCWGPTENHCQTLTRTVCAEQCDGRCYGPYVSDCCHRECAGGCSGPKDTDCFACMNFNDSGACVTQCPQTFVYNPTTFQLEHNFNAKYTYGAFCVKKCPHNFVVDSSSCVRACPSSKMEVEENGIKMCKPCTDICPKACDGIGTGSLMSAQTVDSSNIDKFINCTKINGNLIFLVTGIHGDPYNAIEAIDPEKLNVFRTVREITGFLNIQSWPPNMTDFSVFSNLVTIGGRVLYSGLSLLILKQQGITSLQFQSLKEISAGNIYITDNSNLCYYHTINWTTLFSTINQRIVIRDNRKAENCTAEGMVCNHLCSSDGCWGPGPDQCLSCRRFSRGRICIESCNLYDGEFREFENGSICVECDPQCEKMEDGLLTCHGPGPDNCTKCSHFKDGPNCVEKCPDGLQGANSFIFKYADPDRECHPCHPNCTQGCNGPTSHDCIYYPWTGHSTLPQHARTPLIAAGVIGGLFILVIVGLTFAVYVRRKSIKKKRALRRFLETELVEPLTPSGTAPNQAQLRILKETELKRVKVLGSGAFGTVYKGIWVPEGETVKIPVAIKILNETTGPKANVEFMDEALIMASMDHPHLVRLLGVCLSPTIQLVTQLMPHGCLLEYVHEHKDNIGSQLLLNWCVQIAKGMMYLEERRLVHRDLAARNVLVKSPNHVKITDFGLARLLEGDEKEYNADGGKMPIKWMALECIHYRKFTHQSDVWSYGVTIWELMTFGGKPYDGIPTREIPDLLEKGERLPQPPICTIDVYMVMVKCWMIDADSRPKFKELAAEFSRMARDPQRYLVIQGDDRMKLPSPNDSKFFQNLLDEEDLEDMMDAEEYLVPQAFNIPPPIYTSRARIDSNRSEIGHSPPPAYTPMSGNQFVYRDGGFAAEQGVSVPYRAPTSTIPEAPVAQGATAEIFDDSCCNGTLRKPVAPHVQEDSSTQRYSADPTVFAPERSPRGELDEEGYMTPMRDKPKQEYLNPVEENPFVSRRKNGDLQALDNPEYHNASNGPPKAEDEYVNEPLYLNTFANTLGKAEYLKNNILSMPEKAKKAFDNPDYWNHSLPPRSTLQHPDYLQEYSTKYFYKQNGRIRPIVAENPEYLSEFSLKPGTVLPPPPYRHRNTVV

Effect on Shc1-adaptor protein binding to ErbB4 [2] | EGFR-Wt mean [3] | EGFR-L858R mean [5] | Compound | Receptor phosphorylation upon Erlotinib treatment (Western blot) [1] | Wt/L858R [4]
reduced Shc1-adaptor protein binding |  |  | CNc1cc2c(Nc3cccc(Br)c3)ncnc2cn1 [TKI-PD158780] |  | 
 | 1.89 | 0.50 | ABL1 |  | 3.76
 | 0.93 | 2.18 | APP |  | 0.43
 | 1.77 | 0.97 | ASAP2 |  | 1.81
 | 4.51 | 8.25 | BLK |  | 0.55
 | 0.37 | 1.24 | CD33 |  | 0.30
 | 8.30 | 5.00 | EZR |  | 1.66
 | 0.85 | 1.15 | FASLG |  | 0.74
 | 0.97 | 1.27 | GAB2 |  | 0.76
 | 27.58 | 14.81 | HSP90AB1 |  | 1.86
 | 12.77 | 19.20 | HSPA1A |  | 0.67
 | 8.28 | 6.55 | IKBKG |  | 1.26
 | 2.62 | 0.83 | ITGB2 |  | 3.16
 | 2.09 | 0.60 | ITSN2 |  | 3.50
 | 1.48 | 2.83 | MAPK9 |  | 0.52
 | 1.09 | 4.18 | MUC1 |  | 0.26
 | 3.21 | 2.59 | NR3C1 |  | 1.24
 | 1.57 | 0.97 | NTRK2 |  | 1.61
 | 1.23 | 4.30 | PIK3C2B |  | 0.29
 | 1.17 | 3.25 | PIK3R2 |  | 0.36
 | 1.91 | 1.51 | PIM1 |  | 1.27
 | 11.13 | 7.70 | PRKCA |  | 1.45
 | 44.56 | 55.90 | PTPN1 |  | 0.80
 | 0.58 | 1.39 | Rgs4 |  | 0.41
 | 5.60 | 14.70 | SFN |  | 0.38
 | 2.99 | 3.76 | SH2B1 |  | 0.79
 | 1.59 | 9.83 | SOCS3 |  | 0.16
 | 7.39 | 10.44 | YWHAB |  | 0.71
 | 1.32 | 1.42 | YWHAG |  | 0.93
 | 7.58 | 13.94 | YWHAZ |  | 0.54

Continued, compound first:

Compound | Effect on Shc1-adaptor protein binding to ErbB4 [2] | EGFR-Wt mean [3] | EGFR-L858R mean [5] | Receptor phosphorylation upon Erlotinib treatment (Western blot) [1] | Wt/L858R [4]
C#Cc1cccc(Nc2ncnc3cc(OCCOC)c(OCCOC)cc23)c1 [Erlotinib] |  |  |  | sensitive to Erlotinib | 
AKT1 |  | 4.12 | 3.11 |  | 1.32
ARRB1 |  | 2.72 | 6.57 |  | 0.41
CD3E |  | 1.39 | 0.76 |  | 1.83
DOK6 |  | 1.22 | 1.32 |  | 0.92
FGR |  | 2.62 | 4.99 |  | 0.52
FRK |  | 2.84 | 5.36 |  | 0.53
Gapdh |  | 3.44 | 3.79 |  | 0.91
Grb2 |  |  |  |  | 0.28
HCK |  | 3.94 | 3.96 |  | 1.00
HDAC6 |  | 24.86 | 14.90 |  | 1.67
HSPA8 |  | 25.00 | 39.20 |  | 0.64
Hsp90aa1 |  | 74.20 | 97.06 |  | 0.76
MAP4K1 |  | 1.51 | 1.76 |  | 0.86
NCK2 |  | 4.35 | 4.87 |  | 0.89
PIK3R3 |  | 1.55 | 2.40 |  | 0.64
PTPN6 |  | 1.51 | 1.43 |  | 1.05
RELA |  | 1.27 | 1.18 |  | 1.08
S100A4 |  | 1.72 | 4.46 |  | 0.39
STAT2 |  | 0.84 | 3.03 |  | 0.28
STAT3 |  | 7.35 | 4.20 |  | 1.75
STUB1 |  | 10.28 | 7.04 |  | 1.46
TGFA |  | 2.52 | 1.59 |  | 1.59
TLR2 |  | 0.58 | 1.69 |  | 0.34
TRAF2 |  | 7.28 | 3.47 |  | 2.10
YES1 |  | 1.91 | 1.23 |  | 1.55
YWHAQ |  | 8.19 | 11.96 |  | 0.69
